Positions count from the first letter of the chain named. Names may count otherwise. Blank lines part the entries; values can stand above or below the binder they belong to.
How the values were obtained:
[1] = biological target: T1, human C1s mutant M15 (S360N) (human, UniProt P09871 16-688); experiment: ELISA, plate coated with human C1s mutant M15: S360N, OD450nm
T1 construct: The entry is the mutant itself
T1 sequence: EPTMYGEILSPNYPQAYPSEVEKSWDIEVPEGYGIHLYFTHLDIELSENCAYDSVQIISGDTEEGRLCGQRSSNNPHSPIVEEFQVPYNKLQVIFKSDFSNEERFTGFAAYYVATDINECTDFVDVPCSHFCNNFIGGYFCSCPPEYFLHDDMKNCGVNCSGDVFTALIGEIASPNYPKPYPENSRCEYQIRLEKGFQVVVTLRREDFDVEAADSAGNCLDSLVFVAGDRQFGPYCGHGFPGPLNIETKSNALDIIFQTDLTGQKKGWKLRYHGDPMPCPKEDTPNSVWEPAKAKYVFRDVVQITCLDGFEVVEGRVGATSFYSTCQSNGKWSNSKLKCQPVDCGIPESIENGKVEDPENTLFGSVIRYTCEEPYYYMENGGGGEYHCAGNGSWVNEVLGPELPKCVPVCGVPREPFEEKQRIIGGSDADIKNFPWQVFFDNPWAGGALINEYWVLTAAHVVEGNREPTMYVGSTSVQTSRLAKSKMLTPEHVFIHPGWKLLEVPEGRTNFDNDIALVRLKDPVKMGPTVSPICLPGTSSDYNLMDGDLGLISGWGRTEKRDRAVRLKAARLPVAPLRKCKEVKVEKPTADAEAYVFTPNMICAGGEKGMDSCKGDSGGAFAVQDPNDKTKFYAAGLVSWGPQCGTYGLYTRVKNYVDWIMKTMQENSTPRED
Protocol: (§1) ELISA was carried out by first coating 96-well plates with 200 ng/well of full-length or truncated C1s proteins overnight. The next morning, plates were blocked with SuperBlock T20 blocking buffer (Thermo Scientific 37536) for 1 h with gentle shaking. Then, various concentrations of anti-C1s antibodies diluted in SuperBlock T20 blocking buffer were added to the plates and incubated for 1 h with gentle shaking. Mouse IgG (Sigma-Aldrich 15381) and human IgG1 (BioXCell BP0297) were used as negative controls. The plates were washed before incubating with HRP conjugated secondary antibodies diluted in SuperBlock T20 blocking buffer (goat anti-mouse IgG (H+L) cross-adsorbed secondary antibody HRP (Invitrogen G-21040) or goat anti-human IgG antibody, HRP conjugate (Millipore AP309P)) for 1 h with gentle shaking. At last, the plates were washed and color developed with ELISA liquid HRP substrate (Sigma-Aldrich), followed by stopping the reaction with addition of 1M H₂SO₄ in the same volume as the ELISA liquid substrate. Bound antibody was measured by absorbance at OD₄₅₀ₙₘ.
(§2) Binding of anti-C1s antibodies to mutants M1-M20 of human C1s was measured by ELISA as described in Example 4, and results are shown in FIGS. 6B-6U. All anti-C1s humanized variants including hz2-7(H1L2), hz2-8(H1L2 G80A) and hz2-8(H1L2 G80A/T82A) maintained strong binding properties to the majority (16 out of 20) of C1s mutants including M1 (FIG. 6B), M2 (FIG. 6C), M3 (FIG. 6D). M4 (FIG. 6E), M7 (FIG. 6H), M8 (FIG. 6I), M10 (FIG. 6K), M11 (FIG. 6L), M12 (FIG. 6M), M13 (FIG. 6N), M15 (FIG. 6P), M16 (FIG. 6Q), M17 (FIG. 6R), M18 (FIG. 6S), M19 (FIG. 6T) and M20 (FIG. 6U).

[2] = biological target: T2, human C1s mutant M2 (M277I & K331Q) (human, UniProt P09871 16-688); experiment: ELISA, plate coated with human C1s mutant M2: M277I, K331Q, OD450nm
T2 construct: The entry is the mutant itself
T2 sequence: T1 sequence with M277I, K331Q, N360S
Protocol: as §1, §2

[3] = biological target: T3, human C1s mutant M3 (M277I, P278S & N329D) (human, UniProt P09871 16-688); experiment: ELISA, plate coated with human C1s mutant M3: M277I, P278S, N329D, OD450nm
T3 construct: The entry is the mutant itself
T3 sequence: T1 sequence with M277I, P278S, N329D, N360S
Protocol: as §1, §2

EC50 [1]: 3 ng/mL
EC50 [2]: 9 ng/mL
EC50 [3]: 8 ng/mL
B1: Anti-C1s antibody hz2-7(H1L2) (antibody, V domains shown)
VH: EVQLLESGGGLVQPGGSLRLSCAASGFTFSNYFMNWVRQAPGKGLEWVSEIRLKFTNYATHYADSVKGRFTISRDDSKSTLYLQMNSLRAEDTAVYYCTRDYGSRNGYFDYWGQGTLVTVSS
VL: DIVMTQTPLSLPVTPGEPASISCRSSKSLLHSNGNTFLYWFLQKPGQSPQLLIYRMSNLASGVPDRFSGSGSGTDFTLKISRVEAEDVGVYYCMQHLEYPYTFGGGTKLEIKR
notes: Humanized, human IgG1 / kappa; also called hz2-7(1L2)

EC50 [1]: 4 ng/mL
EC50 [2]: 7 ng/mL
EC50 [3]: 6 ng/mL
B2: Anti-C1s antibody hz2-8 (H1L2 G80A) (antibody, V domains shown)
VH: QVQLVQSGAEVKKPGASVKVSCKASGFNIKEYYMHWVRQAPEQGLEWMGWIDPENADTIYAQKFQGRVTITADTSTNTAYMELSSLRSEDTAVYYCARSRLFFAYWGQGTLVTVSS
VL: DIQMTQSPKSLSASVGDRVTITCRASQDVRTALDWYQQKPGQSPKLLIYSASYRYSGVPSRFSGSGSGTDFTLTISSLQPEDFATYYCQQQYTTPYTFGQGTKLEIKR
notes: Humanized variant with G80A in HC CDR2 (already in the entry), human IgG1 / kappa

EC50 [1]: 5 ng/mL
EC50 [2]: 6 ng/mL
EC50 [3]: 4 ng/mL
B3: Anti-C1s antibody hz2-8 (H1L2 G80A/T82A) (antibody, V domains shown)
VH: B2 VH with T58A
VL: B2 VL
notes: Humanized variant with G80A and T82A in HC CDR2 (already in the entry), human IgG1 / kappa
